# Assay type: in vitro ADME
# Experimental: In order to simulate the effect of digestion and oligonucleotide uptake without human trials and without harming endangered species, in vitro gastro-intestinal digestion experiments were performed. […] In short, oral, gastric and intestinal passage were simulated by emulating their respective chemical and enzymatic compositions.
# The integrity of the oligonucleotides after in vitro digestion was determined through realtime PCR. Quantification of full length genes was performed using the Applied
# Biosystems 7500 (Thermo Fisher Scientific Inc.) with the gScript™ One-Step SYBR® Green qRT-PCR Kit, ROX™ (QuantaBio Inc.) and oligonucleotide primers (Prim_SEQ1 for [ATGCCCTTGTCCAGTC], Prim_SEQ1 rev[CTAGAAAGCACAGCTG]) annealing (53° C.) at the ends of the full length gene. […] In order to simulate the in vitro passage of a traditional extract, a piece of dried beef meat (“beef jerky”, Bos taurus) was used and oligonucleotides for the corresponding growth factor 1 (GenBank: V00111.1) derived (for [acggctcagg gtccgtgaca], rev [ctaataaaat gaggaaattg]). Dried beef samples were rinsed in deionized, sterile water for 14 hours at 21° C. followed by an incubation with proteinase K (400 ng/mL, P2308 Sigma-Aldrich, USA) and guanidine hydrochloride (5 mol/L, CAS Number: 50-01-1) in 1 mL volume for 12 h at 55° C. […]
molecule,measurement,setting,value
"SEQ ID NO: 1: growth hormone 1 (GH1) of Panthera tigris altaica (tiger) (nucleic acid, Panthera tigris altaica) DNA: ATGCCCTTGTCCAGTCTGTTTGCCAACGCCGTGCTCCGGGCCCAGCACCTGCACCAGCTGGCCGCCGACACCTACAAAGAGTTTGAGCGGGCGTACATCCCGGAGGGACAGAGGTATTCCATCCAGAACGCGCAGGCTGCCTTCTGCTTCTCGGAGACCATCCCGGCCCCCACGGGCAAGGACGAGGCCCAGCAGAGATCCGTGAGTGGCCAGGGGCGCCCGGCCAAGGATCAGGGGCCTCCCTCGTCTGCAGGAGTCAGGCCCTGGGCAGCCTTCTCCCTGGGGCCGAGGGTGTGCAGGGAGGCAGACTGGGCCTCTCCGTCCCTCTTCCCCTTTTTGCAGGAGCTGGAAGATGGCAGCCCCCGGGCCGGGCAGATCCTGAAGCAAACCTACGACAAGTTTGACACAAACTTGCGCAGTGACGACGCGCTGCTCAAGAACTATGGGCTCCTGTCCTGCTTCAAGAAGGACCTGCACAAGGCTGAGACGTACCTGCGGGTCATGAAGTGTCGCCGCTTCGTGGAAAGCAGCTGTGCTTTCTAG",detection of full length gene oligonucleotide by realtime PCR,,easily detectable amounts
same,crossing point (CP) of full length oligonucleotide in realtime PCR,"after passing through the in vitro digestion assay, 1 million oligonucleotide molecules or more, of 40 cycles",23 cycles

# From US20200230166A1, “Oligonucleotides in food, beverage, cosmetic and medicinal formulations” (DNA Essence GmbH, priority 2015, published 2020)
